Measured values from patent US20240270821A1, “GIP/GLP1/GCG TRI-RECEPTOR AGONISTS AND USES THEREOF” (priority 2023, published 2024).
Starred links: 1 amine or outer side, 2 acyl side, 3 side chain; linkers in the order of their positions; H or OH if unused. Non-standard residues stand in square brackets, D forms with d. Groups on a side chain read outwards from the residue. No end group written: not given here. *: point of attachment. C20 diacid = O=C(O)CCCCCCCCCCCCCCCCCCC(=O)*; αMePhe(2-F) = C[C@](N)(Cc1ccccc1F)C(=O)O; γGlu = O=C(O)[C@H](CCC(=O)[*:2])N[*:1]; αMeL = CC(C)C[C@](C)(N)C(=O)O; AEEA = NCCOCCOCC(=O)O; Aib = CC(C)(N)C(=O)O

These binders were tested against human glucagon receptor (human) (UniProt P47871) (assay: cell-based or functional assay).
Chain of human glucagon receptor (human) (P47871 26-477): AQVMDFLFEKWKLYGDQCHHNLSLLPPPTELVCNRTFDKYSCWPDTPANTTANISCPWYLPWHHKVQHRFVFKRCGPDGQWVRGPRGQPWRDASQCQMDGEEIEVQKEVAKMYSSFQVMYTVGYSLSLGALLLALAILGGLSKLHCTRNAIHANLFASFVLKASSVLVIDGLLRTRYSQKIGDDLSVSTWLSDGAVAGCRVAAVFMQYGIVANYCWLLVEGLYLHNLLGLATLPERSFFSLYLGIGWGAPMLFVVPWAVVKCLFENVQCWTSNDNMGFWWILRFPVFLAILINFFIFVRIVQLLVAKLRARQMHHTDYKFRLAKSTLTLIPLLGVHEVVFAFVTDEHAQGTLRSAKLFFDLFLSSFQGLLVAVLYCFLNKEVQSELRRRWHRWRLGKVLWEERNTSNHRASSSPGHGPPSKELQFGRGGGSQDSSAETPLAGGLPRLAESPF

Q: Which Relative cAMP EC50 does the source give for Y[Aib]QGTFTSDYSI[αMeL]LDKQAAKQFVEWLIA[Aib]GPSSGEPPPGSG-NH2 (not fully specified (residue 20)) [Example 335] here?
A: The Relative cAMP EC50 was 6.11 nM.

Q: What about the cAMP Rel EC50 (1% HSA) of the same binder?
A: The cAMP Rel EC50 (1% HSA) was 1410 nM.

Q: With Y[Aib]QGTFTSDYSK[αMeL]LDKKAQQAFIEYLIAGGPSSGEPPPSGD-NH2 (not fully specified (residue 17)) [Example 337] as the binder, how does the Relative cAMP EC50 read?
A: Its Relative cAMP EC50 is 5.95 nM.

Q: What about the cAMP Rel EC50 (1% HSA) of the same binder?
A: The cAMP Rel EC50 (1% HSA) was 2950 nM.

Q: What does the source list for Y[Aib]QGT[αMePhe(2-F)]TSDYSKLLDKIAQKAFIEYLIEGGPSSGEPPPSEG-NH2 (not fully specified (residue 20)) [Example 330]?
A: Relative cAMP EC50: 3.91 nM; cAMP Rel EC50 (1% HSA): 398 nM

Q: For Y[Aib]QGT[αMePhe(2-F)]TSDYSILLDKQAAKAFIEYLIEGGPSSGEPPPSEG-NH2 (not fully specified (residue 20)) [Example 331], which Relative cAMP EC50 is on record?
A: Its Relative cAMP EC50 is 1.66 nM.

Q: What about the cAMP Rel EC50 (1% HSA) of the same binder?
A: Its cAMP Rel EC50 (1% HSA) is 339 nM.

Q: For Y[Aib]QGT[αMePhe(2-F)]TSDYSKLLDKIAQKAFIEYLIEGGPSSGAPPPSEG-NH2 (not fully specified (residue 20)) [Example 339], which Relative cAMP EC50 is on record?
A: Its Relative cAMP EC50 is 6.81 nM.

Q: And the cAMP Rel EC50 (1% HSA)?
A: Its cAMP Rel EC50 (1% HSA) is 1510 nM.

Q: Which Relative cAMP EC50 does the source give for Y[Aib]QGTFTSDYSI[αMeL]LDKQAAKQFVEWLIA[Aib]GPSSGEPPPGTG-NH2 (not fully specified (residue 20)) [Example 336] here?
A: Its Relative cAMP EC50 is 7.05 nM.

Q: And the cAMP Rel EC50 (1% HSA)?
A: The cAMP Rel EC50 (1% HSA) was 1740 nM.

Q: What does the source list for Y[Aib]QGT[αMePhe(2-F)]TSDYSKLLDKIAQKAFIQYLIEGGPSSGEPPPSEG-NH2 (not fully specified (residue 20)) [Example 338]?
A: Relative cAMP EC50: 4.02 nM; cAMP Rel EC50 (1% HSA): 659 nM

Q: Y[Aib]QGTFTSDYSI[αMeL]LDKQAAK([AEEA-AEEA-γGlu-C20 diacid])QFVEWLIAGGPSSGEPPPAEG-NH2 [Example 332] was tested. Which Relative cAMP EC50 did it give?
A: The Relative cAMP EC50 was 11.8 nM.

Q: What about the cAMP Rel EC50 (1% HSA) of the same binder?
A: The cAMP Rel EC50 (1% HSA) was 3340 nM.

Q: Which Relative cAMP EC50 does the source give for Y[Aib]QGTFTSDYSI[αMeL]LDKQAAK([AEEA-AEEA-γGlu-C20 diacid])QFVEWLIA[Aib]GPSSGEPPPGEG-NH2 [Example 333] here?
A: The Relative cAMP EC50 was 7.09 nM.

Q: What about the cAMP Rel EC50 (1% HSA) of the same binder?
A: Its cAMP Rel EC50 (1% HSA) is 1410 nM.

What follows are binders tested against T1, human GIP receptor (human) (UniProt P48546) (assay: cell-based or functional assay).
T1 sequence (looked up): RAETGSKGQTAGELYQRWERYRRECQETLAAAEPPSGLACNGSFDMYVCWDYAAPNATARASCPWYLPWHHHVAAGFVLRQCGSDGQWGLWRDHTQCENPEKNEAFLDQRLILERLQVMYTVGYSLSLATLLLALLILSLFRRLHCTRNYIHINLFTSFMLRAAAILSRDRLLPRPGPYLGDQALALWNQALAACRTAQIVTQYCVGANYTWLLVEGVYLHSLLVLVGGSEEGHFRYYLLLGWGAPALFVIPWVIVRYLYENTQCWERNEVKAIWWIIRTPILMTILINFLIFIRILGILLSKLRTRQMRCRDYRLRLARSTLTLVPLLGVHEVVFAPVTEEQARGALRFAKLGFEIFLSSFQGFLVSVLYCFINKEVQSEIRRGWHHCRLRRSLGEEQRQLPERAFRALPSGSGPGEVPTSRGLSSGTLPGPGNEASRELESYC

Q: Which Relative cAMP EC50 does the source give for Y[Aib]QGTFTSDYSI[αMeL]LDKQAAKQFVEWLIA[Aib]GPSSGEPPPGSG-NH2 (not fully specified (residue 20)) [Example 335] here?
A: Its Relative cAMP EC50 is 0.292 nM.

Q: What about the cAMP Rel EC50 (1% HSA) of the same binder?
A: Its cAMP Rel EC50 (1% HSA) is 46.7 nM.

Q: How did the Relative cAMP EC50 turn out when Y[Aib]QGTFTSDYSK[αMeL]LDKKAQQAFIEYLIAGGPSSGEPPPSGD-NH2 (not fully specified (residue 17)) [Example 337] was run?
A: Its Relative cAMP EC50 is 0.332 nM.

Q: What about the cAMP Rel EC50 (1% HSA) of the same binder?
A: The cAMP Rel EC50 (1% HSA) was 99.1 nM.

Q: Y[Aib]QGT[αMePhe(2-F)]TSDYSKLLDKIAQKAFIEYLIEGGPSSGEPPPSEG-NH2 (not fully specified (residue 20)) [Example 330] was tested. Which Relative cAMP EC50 did it give?
A: Its Relative cAMP EC50 is 0.0783 nM.

Q: What about the cAMP Rel EC50 (1% HSA) of the same binder?
A: The cAMP Rel EC50 (1% HSA) was 7.33 nM.

Q: What does the source list for Y[Aib]QGT[αMePhe(2-F)]TSDYSILLDKQAAKAFIEYLIEGGPSSGEPPPSEG-NH2 (not fully specified (residue 20)) [Example 331]?
A: Relative cAMP EC50: 0.148 nM; cAMP Rel EC50 (1% HSA): 47.5 nM

Q: What does the source list for Y[Aib]QGT[αMePhe(2-F)]TSDYSKLLDKIAQKAFIEYLIEGGPSSGAPPPSEG-NH2 (not fully specified (residue 20)) [Example 339]?
A: Relative cAMP EC50: 0.101 nM; cAMP Rel EC50 (1% HSA): 28.8 nM

Q: How did the Relative cAMP EC50 turn out when Y[Aib]QGTFTSDYSI[αMeL]LDKQAAKQFVEWLIA[Aib]GPSSGEPPPGTG-NH2 (not fully specified (residue 20)) [Example 336] was run?
A: Its Relative cAMP EC50 is 0.306 nM.

Q: What about the cAMP Rel EC50 (1% HSA) of the same binder?
A: The cAMP Rel EC50 (1% HSA) was 64.4 nM.

Q: What does the source list for Y[Aib]QGT[αMePhe(2-F)]TSDYSKLLDKIAQKAFIQYLIEGGPSSGEPPPSEG-NH2 (not fully specified (residue 20)) [Example 338]?
A: Relative cAMP EC50: 0.0733 nM; cAMP Rel EC50 (1% HSA): 10.9 nM

Q: How did the Relative cAMP EC50 turn out when Y[Aib]QGTFTSDYSI[αMeL]LDKQAAK([AEEA-AEEA-γGlu-C20 diacid])QFVEWLIAGGPSSGEPPPAEG-NH2 [Example 332] was run?
A: The Relative cAMP EC50 was 0.413 nM.

Q: What about the cAMP Rel EC50 (1% HSA) of the same binder?
A: The cAMP Rel EC50 (1% HSA) was 78.2 nM.

Q: What does the source list for Y[Aib]QGTFTSDYSI[αMeL]LDKQAAK([AEEA-AEEA-γGlu-C20 diacid])QFVEWLIA[Aib]GPSSGEPPPGEG-NH2 [Example 333]?
A: Relative cAMP EC50: 0.265 nM; cAMP Rel EC50 (1% HSA): 36.3 nM

What follows are binders tested against hGLP-1R (Homo sapiens, UniProt P43220) (assay: cell-based or functional assay).
Chain of hGLP-1R (P43220 24-463): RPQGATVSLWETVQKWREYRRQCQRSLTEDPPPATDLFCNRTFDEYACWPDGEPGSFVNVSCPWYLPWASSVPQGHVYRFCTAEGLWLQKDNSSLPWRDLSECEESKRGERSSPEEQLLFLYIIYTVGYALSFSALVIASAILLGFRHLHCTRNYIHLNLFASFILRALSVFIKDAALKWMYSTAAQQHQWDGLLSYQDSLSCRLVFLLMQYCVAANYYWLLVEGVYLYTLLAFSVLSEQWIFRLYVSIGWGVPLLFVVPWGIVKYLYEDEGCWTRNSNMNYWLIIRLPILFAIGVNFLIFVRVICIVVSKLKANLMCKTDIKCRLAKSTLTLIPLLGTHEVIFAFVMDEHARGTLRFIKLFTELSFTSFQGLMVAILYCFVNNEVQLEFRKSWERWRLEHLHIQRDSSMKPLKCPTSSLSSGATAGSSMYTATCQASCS

Q: For Y[Aib]QGTFTSDYSI[αMeL]LDKQAAKQFVEWLIA[Aib]GPSSGEPPPGSG-NH2 (not fully specified (residue 20)) [Example 335], which Relative cAMP EC50 is on record?
A: Its Relative cAMP EC50 is 0.461 nM.

Q: And the cAMP Rel EC50 (1% HSA)?
A: The cAMP Rel EC50 (1% HSA) was 150 nM.

Q: Which results are given for Y[Aib]QGTFTSDYSK[αMeL]LDKKAQQAFIEYLIAGGPSSGEPPPSGD-NH2 (not fully specified (residue 17)) [Example 337]?
A: Relative cAMP EC50: 0.686 nM; cAMP Rel EC50 (1% HSA): 272 nM

Q: Which Relative cAMP EC50 does the source give for Y[Aib]QGT[αMePhe(2-F)]TSDYSKLLDKIAQKAFIEYLIEGGPSSGEPPPSEG-NH2 (not fully specified (residue 20)) [Example 330] here?
A: The Relative cAMP EC50 was 0.63 nM.

Q: What about the cAMP Rel EC50 (1% HSA) of the same binder?
A: Its cAMP Rel EC50 (1% HSA) is 91.8 nM.

Q: Which Relative cAMP EC50 does the source give for Y[Aib]QGT[αMePhe(2-F)]TSDYSILLDKQAAKAFIEYLIEGGPSSGEPPPSEG-NH2 (not fully specified (residue 20)) [Example 331] here?
A: The Relative cAMP EC50 was 0.663 nM.

Q: And the cAMP Rel EC50 (1% HSA)?
A: The cAMP Rel EC50 (1% HSA) was 207 nM.

Q: Y[Aib]QGT[αMePhe(2-F)]TSDYSKLLDKIAQKAFIEYLIEGGPSSGAPPPSEG-NH2 (not fully specified (residue 20)) [Example 339] was tested. Which Relative cAMP EC50 did it give?
A: The Relative cAMP EC50 was 1.06 nM.

Q: And the cAMP Rel EC50 (1% HSA)?
A: Its cAMP Rel EC50 (1% HSA) is 192 nM.

Q: How did the Relative cAMP EC50 turn out when Y[Aib]QGTFTSDYSI[αMeL]LDKQAAKQFVEWLIA[Aib]GPSSGEPPPGTG-NH2 (not fully specified (residue 20)) [Example 336] was run?
A: The Relative cAMP EC50 was 0.921 nM.

Q: What about the cAMP Rel EC50 (1% HSA) of the same binder?
A: The cAMP Rel EC50 (1% HSA) was 227 nM.

Q: Which results are given for Y[Aib]QGT[αMePhe(2-F)]TSDYSKLLDKIAQKAFIQYLIEGGPSSGEPPPSEG-NH2 (not fully specified (residue 20)) [Example 338]?
A: Relative cAMP EC50: 1.22 nM; cAMP Rel EC50 (1% HSA): 172 nM

Q: With Y[Aib]QGTFTSDYSI[αMeL]LDKQAAK([AEEA-AEEA-γGlu-C20 diacid])QFVEWLIAGGPSSGEPPPAEG-NH2 [Example 332] as the binder, how does the Relative cAMP EC50 read?
A: Its Relative cAMP EC50 is 1.24 nM.

Q: What about the cAMP Rel EC50 (1% HSA) of the same binder?
A: The cAMP Rel EC50 (1% HSA) was 298 nM.

Q: Y[Aib]QGTFTSDYSI[αMeL]LDKQAAK([AEEA-AEEA-γGlu-C20 diacid])QFVEWLIA[Aib]GPSSGEPPPGEG-NH2 [Example 333] was tested. Which Relative cAMP EC50 did it give?
A: Its Relative cAMP EC50 is 0.705 nM.

Q: And the cAMP Rel EC50 (1% HSA)?
A: The cAMP Rel EC50 (1% HSA) was 182 nM.
